Data reported in US20060259987A1 (UNIVERSITY OF UTAH RESEARCH FOUNDATION, published 2006).

What was measured:
[1] = target: T1, human neutrophil elastase (human, UniProt P08246 30-247, limits assumed); assay: cell-based or functional assay
T1 sequence (looked up): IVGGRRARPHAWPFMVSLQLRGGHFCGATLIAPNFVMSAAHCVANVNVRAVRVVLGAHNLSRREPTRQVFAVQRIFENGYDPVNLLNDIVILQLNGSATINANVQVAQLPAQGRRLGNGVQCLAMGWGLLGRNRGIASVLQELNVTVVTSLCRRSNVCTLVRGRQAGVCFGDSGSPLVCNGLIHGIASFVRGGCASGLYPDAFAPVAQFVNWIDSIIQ

[2] = target: T2, human thrombin (human, UniProt P00734 328-622); assay: residual enzyme activity against time, pseudo-first-order, progressive (no heparin)
[3] = target: T3, human factor Xa (human, UniProt P00742 41-179; P00742 235-488, limits assumed); assay: residual enzyme activity against time, pseudo-first-order, with heparin
T3 construct: the active enzyme is a two-chain form of it; also called fXa
Method: Polybrene was added with the chromogenic substrate to quench the heparin dependent reaction. The observed pseudo-first-order rate constants were calculated for each heparin (1 nM-5 nM) concentration from the slope of the log of residual proteinase activity vs. time. This was plotted against the heparin concentration to calculate the second-order rate constant for the inhibition by the heparin-ATIII complex, (Kₕₑₚ) from the equation Kobs=Kₕₑₚ[H]ₒ([AT]ₒ/[AT]ₒ+Kd)+Kuncat[AT]ₒ

[4] = target: T3, human factor Xa; assay: residual enzyme activity against time, pseudo-first-order, progressive (no heparin)
[5] = target: T2, human thrombin; assay: thrombin inhibition rate in the presence of heparin (HAH)
[6] = target: T2, human thrombin; assay: thrombin inhibition rate in the absence of heparin
[7] = target: T1, human neutrophil elastase; assay: cell-based or functional assay; remark: listed apart in the source
[8] = target: T2, human thrombin; assay: cell-based or functional assay
[9] = target: T3, human factor Xa; assay: cell-based or functional assay
[10] = target: T4, human neutrophil cathepsin G (human, UniProt P08311 21-244); assay: cell-based or functional assay
T4 sequence (looked up): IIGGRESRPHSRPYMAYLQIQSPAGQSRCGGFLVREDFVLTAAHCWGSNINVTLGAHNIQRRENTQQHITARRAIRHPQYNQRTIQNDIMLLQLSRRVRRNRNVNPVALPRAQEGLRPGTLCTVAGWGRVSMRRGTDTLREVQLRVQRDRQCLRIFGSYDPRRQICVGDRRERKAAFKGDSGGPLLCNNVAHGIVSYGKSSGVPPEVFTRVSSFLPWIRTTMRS

[11] = target: T5, thrombin (human, UniProt P00734 328-622); assay: heparin cofactor assay, HCA expt #3; ATIII titrated on 10 nM thrombin + 50 ug/ml UFH, chromogenic readout
Method: (§1) After 3 minutes, the reactions were quenched with polybrene and chromogenic substrate S2238 (thrombin) or S2765 (fXa), and the initial rate of chromophore production (405 nm) recorded to obtain a measurement residual, uninhibited thrombin or factor Xa. IC50s were determined from plots of ATIII concentration vs. percent residual target enzyme activity.

[12] = target: T6, factor Xa (human, UniProt P00742 41-179; P00742 235-488, limits assumed); assay: heparin cofactor assay, HCA expt #3; ATIII titrated on 10 nM fXa + 50 ug/ml UFH, chromogenic readout
T6 construct: Active factor Xa has a light and a heavy chain; also called fXa
Method: as §1

[13] = target: T5, thrombin; assay: cell-based or functional assay
[14] = target: T6, factor Xa; assay: cell-based or functional assay

T3 sequence (P00742 41-179 limits assumed, chain 1 of 2): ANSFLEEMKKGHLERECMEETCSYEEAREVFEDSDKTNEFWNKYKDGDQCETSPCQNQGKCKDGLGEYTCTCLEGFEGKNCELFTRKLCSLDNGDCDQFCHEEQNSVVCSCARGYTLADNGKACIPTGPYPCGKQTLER
T3 sequence (P00742 235-488 limits assumed, chain 2 of 2): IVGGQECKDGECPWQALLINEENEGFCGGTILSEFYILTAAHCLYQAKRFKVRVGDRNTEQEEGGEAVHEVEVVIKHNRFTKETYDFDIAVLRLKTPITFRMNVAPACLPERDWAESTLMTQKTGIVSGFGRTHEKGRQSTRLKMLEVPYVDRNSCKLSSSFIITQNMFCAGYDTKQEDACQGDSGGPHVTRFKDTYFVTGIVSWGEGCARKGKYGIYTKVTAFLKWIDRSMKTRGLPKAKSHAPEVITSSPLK
T6 sequence (P00742 41-179 limits assumed, form in doubt, chain 1 of 2): as the sequence (P00742 41-179 limits assumed, chain 1 of 2) above
T6 sequence (P00742 235-488 limits assumed, form in doubt, chain 2 of 2): as the sequence (P00742 235-488 limits assumed, chain 2 of 2) above

B1: LEAI.480 (other)
chain: SPVDICTAKPRDIPMNPMCIYRSPEKKATEDEGSEQKIPEATNRRVWELSKANSRFATTFYQHLADSKNDNDNIFLSPLSISTAFAMTKLGACNDTLQQLMEVFKFDTISEKTSDQIHFFFAKLNCRLYRKANKASKLVSANRLFGDKSLTFNETYQDISELVYGAKLQPLDFKENAEQSRAAINKWVSNKTEGRITDVIPSEAINELTVLVLVNTIYFKGLWKSKFSPENTRKELFYKADGESCSASMMYQEGKFRYRRVAEGTQVLELPFKGDDITMVLILPKPEKSLAKVEKELTPEVLQEWLDELEEMMLVVHMPRFRIEDGFSLKEQLQDMGLVDLFSPEKSKLPGIVAEGRDDLYVSDAFHKAFLEVNEEGSEAAASTALEAYGRSLNPNRVTFKANRPFLVFIREVPLNTIIFMGRVANPCVK
notes: Recombinant human ATIII variant made in Drosophila S2 cells on the S137A background
halflife, min (HNE/hep) [1]: 19.9 min
kapp (apparent second-order inhibition rate constant) [2]: 7310 M⁻¹ s⁻¹
kapp (apparent second-order inhibition rate constant) [3]: 489000 M⁻¹ s⁻¹
kapp (apparent second-order inhibition rate constant) [4]: 24100 M⁻¹ s⁻¹

B2: LEAI.474 (other)
chain: SPVDICTAKPRDIPMNPMCIYRSPEKKATEDEGSEQKIPEATNRRVWELSKANSRFATTFYQHLADSKNDNDNIFLSPLSISTAFAMTKLGACNDTLQQLMEVFKFDTISEKTSDQIHFFFAKLNCRLYRKANKASKLVSANRLFGDKSLTFNETYQDISELVYGAKLQPLDFKENAEQSRAAINKWVSNKTEGRITDVIPSEAINELTVLVLVNTIYFKGLWKSKFSPENTRKELFYKADGESCSASMMYQEGKFRYRRVAEGTQVLELPFKGDDITMVLILPKPEKSLAKVEKELTPEVLQEWLDELEEMMLVVHMPRFRIEDGFSLKEQLQDMGLVDLFSPEKSKLPGIVAEGRDDLYVSDAFHKAFLEVNEEGSEAAASTALEAQGRSLNPNRVTFKANRPFLVFIREVPLNTIIFMGRVANPCVK
notes: Recombinant human ATIII variant made in Drosophila S2 cells on the S137A background; also called DES.LEAI.474; LEAQ parent
halflife, min (HNE/hep) [1]: 38.4 min
Kapp, thrombin HAH [5]: 2e+06 M⁻¹ s⁻¹
Kapp, thrombin progressive [6]: 2700 M⁻¹ s⁻¹
kapp (apparent second-order inhibition rate constant) [2]: 2680 M⁻¹ s⁻¹
rsd IIa, HNE (CA #51, stg 1 conc 200) [7]: 2%
rsd IIa, HNE (CA #52, stg 1 conc 200) [7]: 3%
rsd Xa, HNE (CA #51, stg 1 conc 200) [7]: -3%
rsd Xa, HNE (CA #52, stg 1 conc 200) [7]: 3%
IC50 IIa/UFH (HCA #5) [8]: 65 nM
IC50 IIa/UFH (HCA #6) [8]: 55 nM
IC50 IIa/UFH; HCA #2 [8]: 65 nM
IC50 IIa/UFH; HCA #3 [8]: 47 nM
IC50 IIa/UFH; HCA #4 [8]: 50 nM
rsd IIa, no add (CA #51, stg 1 conc 200) [8]: 2%
rsd IIa, no add (CA #52, stg 1 conc 200) [8]: 4%
IC50 fXa/UFH (HCA #5) [9]: 23 nM
IC50 fXa/UFH (HCA #6) [9]: 33 nM
IC50 fXa/UFH; HCA #2 [9]: 20 nM
IC50 fXa/UFH; HCA #3 [9]: 16 nM
IC50 fXa/UFH; HCA #4 [9]: 13 nM
rsd Xa, no add (CA #51, stg 1 conc 200) [9]: -1%
rsd Xa, no add (CA #52, stg 1 conc 200) [9]: 2%
rsd IIa, catG (CA #51, stg 1 conc 200) [10]: 2%
rsd IIa, catG (CA #52, stg 1 conc 200) [10]: 3%
rsd Xa, catG (CA #51, stg 1 conc 200) [10]: -2%
rsd Xa, catG (CA #52, stg 1 conc 200) [10]: 1%
kapp (apparent second-order inhibition rate constant) [3]: 1.25e+06 M⁻¹ s⁻¹
kapp (apparent second-order inhibition rate constant) [4]: 10700 M⁻¹ s⁻¹

B3: 7EVEA.453 (other)
chain: SPVDICTAKPRDIPMNPMCIYRSPEKKATEDEGSEQKIPEATNRRVWELSKANSRFATTFYQHLADSKNDNDNIFLSPLSISTAFAMTKLGACNDTLQQLMEVFKFDTISEKTSDQIHFFFAKLNCRLYRKANKASKLVSANRLFGDKSLTFNETYQDISELVYGAKLQPLDFKENAEQSRAAINKWVSNKTEGRITDVIPSEAINELTVLVLVNTIYFKGLWKSKFSPENTRKELFYKADGESCSASMMYQEGKFRYRRVAEGTQVLELPFKGDDITMVLILPKPEKSLAKVEKELTPEVLQEWLDELEEMMLVVHMPRFRIEDGFSLKEQLQDMGLVDLFSPEKSKLPGIVAEGRDDLYVSDAFHKAFLEVNEEGSEAAASTEVEFAGRSLNPNRVTFKANRPFLVFIREVPLNTIIFMGRVANPCVK
modifications: N-linked glycans added by Drosophila S2 cells; not carried by the letters
notes: Made in Drosophila S2 cells (DES) on the S137A background; N-terminus printed as SPVDI---
IC50 [11]: 450 nM
IC50 [12]: 19 nM
Rsd. IIa No add; CA expt #8; stg1 conc 200 [13]: 14 % of activity without ATIII
rsd. IIa catG; CA expt #8; stg1 conc 200 [13]: 62 % of activity without ATIII
rsd. IIa hne; CA expt #8; stg1 conc 200 [13]: 35 % of activity without ATIII
rsd. Xa catG; CA expt #8; stg1 conc 200 [14]: 2 % of activity without ATIII
rsd. Xa hne; CA expt #8; stg1 conc 200 [14]: 1 % of activity without ATIII
rsd. Xa no add; CA expt #8; stg1 conc 200 [14]: 1 % of activity without ATIII

B4: LEAI.482 (other)
chain: SPVDICTAKPRDIPMNPMCIYRSPEKKATEDEGSEQKIPEATNRRVWELSKANSRFATTFYQHLADSKNDNDNIFLSPLSISTAFAMTKLGACNDTLQQLMEVFKFDTISEKTSDQIHFFFAKLNCRLYRKANKASKLVSANRLFGDKSLTFNETYQDISELVYGAKLQPLDFKENAEQSRAAINKWVSNKTEGRITDVIPSEAINELTVLVLVNTIYFKGLWKSKFSPENTRKELFYKADGESCSASMMYQEGKFRYRRVAEGTQVLELPFKGDDITMVLILPKPEKSLAKVEKELTPEVLQEWLDELEEMMLVVHMPRFRIEDGFSLKEQLQDMGLVDLFSPEKSKLPGIVAEGRDDLYVSDAFHKAFLEVNEEGSEAAASTALEAHGRSLNPNRVTFKANRPFLVFIREVPLNTIIFMGRVANPCVK
notes: as for B1
halflife, min (HNE/hep) [1]: 25.3 min
kapp (apparent second-order inhibition rate constant) [2]: 2920 M⁻¹ s⁻¹
kapp (apparent second-order inhibition rate constant) [3]: 831000 M⁻¹ s⁻¹
kapp (apparent second-order inhibition rate constant) [4]: 5360 M⁻¹ s⁻¹

B5: 7EVEA.454 (other)
chain: SPVDICTAKPRDIPMNPMCIYRSPEKKATEDEGSEQKIPEATNRRVWELSKANSRFATTFYQHLADSKNDNDNIFLSPLSISTAFAMTKLGACNDTLQQLMEVFKFDTISEKTSDQIHFFFAKLNCRLYRKANKASKLVSANRLFGDKSLTFNETYQDISELVYGAKLQPLDFKENAEQSRAAINKWVSNKTEGRITDVIPSEAINELTVLVLVNTIYFKGLWKSKFSPENTRKELFYKADGESCSASMMYQEGKFRYRRVAEGTQVLELPFKGDDITMVLILPKPEKSLAKVEKELTPEVLQEWLDELEEMMLVVHMPRFRIEDGFSLKEQLQDMGLVDLFSPEKSKLPGIVAEGRDDLYVSDAFHKAFLEVNEEGSEAAASTEVEWAGRSLNPNRVTFKANRPFLVFIREVPLNTIIFMGRVANPCVK
modifications: N-linked glycans added by Drosophila S2 cells; not carried by the letters
notes: as for B3
IC50 [11]: 610 nM
IC50 [12]: 20 nM
Rsd. IIa No add; CA expt #8; stg1 conc 200 [13]: 23 % of activity without ATIII
rsd. IIa catG; CA expt #8; stg1 conc 200 [13]: 93 % of activity without ATIII
rsd. IIa hne; CA expt #8; stg1 conc 200 [13]: 53 % of activity without ATIII
rsd. Xa catG; CA expt #8; stg1 conc 200 [14]: 2 % of activity without ATIII
rsd. Xa hne; CA expt #8; stg1 conc 200 [14]: 1 % of activity without ATIII
rsd. Xa no add; CA expt #8; stg1 conc 200 [14]: 1 % of activity without ATIII

B6: 7EVEA.452 (other)
chain: SPVDICTAKPRDIPMNPMCIYRSPEKKATEDEGSEQKIPEATNRRVWELSKANSRFATTFYQHLADSKNDNDNIFLSPLSISTAFAMTKLGACNDTLQQLMEVFKFDTISEKTSDQIHFFFAKLNCRLYRKANKASKLVSANRLFGDKSLTFNETYQDISELVYGAKLQPLDFKENAEQSRAAINKWVSNKTEGRITDVIPSEAINELTVLVLVNTIYFKGLWKSKFSPENTRKELFYKADGESCSASMMYQEGKFRYRRVAEGTQVLELPFKGDDITMVLILPKPEKSLAKVEKELTPEVLQEWLDELEEMMLVVHMPRFRIEDGFSLKEQLQDMGLVDLFSPEKSKLPGIVAEGRDDLYVSDAFHKAFLEVNEEGSEAAASTEVELAGRSLNPNRVTFKANRPFLVFIREVPLNTIIFMGRVANPCVK
modifications: N-linked glycans added by Drosophila S2 cells; not carried by the letters
notes: as for B3
IC50 [11]: 750 nM
IC50 [12]: 24 nM
Rsd. IIa No add; CA expt #8; stg1 conc 200 [13]: 12 % of activity without ATIII
rsd. IIa catG; CA expt #8; stg1 conc 200 [13]: 14 % of activity without ATIII
rsd. IIa hne; CA expt #8; stg1 conc 200 [13]: 46 % of activity without ATIII
rsd. Xa catG; CA expt #8; stg1 conc 200 [14]: 1 % of activity without ATIII
rsd. Xa hne; CA expt #8; stg1 conc 200 [14]: 2 % of activity without ATIII
rsd. Xa no add; CA expt #8; stg1 conc 200 [14]: 1 % of activity without ATIII
